Measurements: patent US20190359951

Tests used:
Test in all cases: cell_activity
[1] = test system: TALE #25-LSD1 fusion (ZFPM2 +10 enhancer) (synthetic construct; LSD1 Homo sapiens); conditions: K562 RT-qPCR; TALE #25 without LSD1 had no effect on ZFPM2
[2] = test system: SCL enhancer TALE-LSD1 fusion (synthetic construct; LSD1 Homo sapiens); conditions: K562 ChIP-qPCR vs mCherry; H3K27ac reduced >4-fold; target assigned to #4 by inference
[3] = test system: TALE #11-LSD1 fusion (ZFPM2 +16 enhancer) (synthetic construct; LSD1 Homo sapiens); conditions: K562; histone modification levels reduced at target; expression change not statistically significant; +16 assigned to #11 from coordinates
[4] = test system: TALE #28-LSD1 fusion (ZFPM2 +45 enhancer) (synthetic construct; LSD1 Homo sapiens); conditions: K562; histone modification levels reduced at target; expression change not statistically significant; +45 assigned to #28 from coordinates
[5] = test system: TALE #14-LSD1 fusion (synthetic construct; LSD1 Homo sapiens); conditions: K562 3'DGE confirmed by RT-qPCR; #14 identified via cDNA qPCR primer set in Table 2

TTAAGCTTCTGAAGTCAG (double strand) [TALE #25 target chr8:106,341,287]
activity (fold ZFPM2 expression reduction) [1]: 2

TCCGTGGCTGCCAGTCTG (double strand) [SCL enhancer TALE target (TALE #4, chr1:47,647,018)]
activity (fold H3K4me2 reduction) [2]: 3

TCCAGTCCCTGGCTCCCATG (double strand) [TALE #11 target chr8:106,347,824]
activity (% ZFPM2 expression reduction) [3]: 13

TAAGTCTACATATAGTATCC (double strand) [TALE #28 target chr8:106,376,850]
activity (% ZFPM2 expression reduction) [4]: 22

TAGCCGCGAGGAAGGCG (double strand) [TALE #14 target chrX:49,023,709]
activity (fold nearby gene down-regulation) [5]: > 1.5
